The text below walks through data of patent US4643988A, “Amphipathic peptides” (Research Corporation, priority 1984, dated 1987).

A short description of this series: Pore exclusion gradient gel electrophoresis of peptide/lipid complexes. Format: physicochemical. Particulars: range over complexes, ratio not stated. How it is done: Pore exclusion electrophoresis was performed on the resulting peptide/lipid complexes (FIG. 7), on 4-25% olyacrylamide gels using non-denaturing conditions for 24 to 36 hours. Gels were fixed and stained in the presence of 4% formaldehyde. DMPC is mixed with a trace of fluorescent marker (NBD). Different ratios of protein:lipid (1:1, 1:2.5, 1:5, 1:7.5) were incubated for 24-36 hours.

Take “Apo A-I: apolipoprotein A-I, major HDL apoprotein component, isolated from human serum”: the Stokes diameter is listed as 80-200 Å.
